This note sets out measurements from article PMC1874611 (Nucleic Acids Research, 2007).

Assay [1] has as its target T1, chimeric GST-CycT1 (GST-T1; aa 1–292) (UniProt O60563 1-292). Kind of assay: pull-down.
In assay [2] the target is T1, chimeric GST-CycT1 (GST-T1; aa 1–292). Kind of assay: stopped-flow fluorescence.

T1 sequence (O60563 1-292, change not shown): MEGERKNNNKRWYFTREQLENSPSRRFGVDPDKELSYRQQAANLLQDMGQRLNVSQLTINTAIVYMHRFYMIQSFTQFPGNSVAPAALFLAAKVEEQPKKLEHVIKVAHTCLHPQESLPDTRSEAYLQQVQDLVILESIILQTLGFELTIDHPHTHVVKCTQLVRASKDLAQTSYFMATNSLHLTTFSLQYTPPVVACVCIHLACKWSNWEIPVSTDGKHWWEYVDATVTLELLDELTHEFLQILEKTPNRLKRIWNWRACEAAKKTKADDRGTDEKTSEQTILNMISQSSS

B1: CycT1-binding domain of HEXIM1 (HEXIM1-TBD; aa 255–359) (domain or fragment)
chain: MGGDGSEFLQRDFSETYERYHTESLQNMSKQELIKEYLELEKCLSRMEDENNRLRLESKRLGGDDARVRELELELDRLRAENLQLLTENELHRQQERAPLSKFGD
Regarding B1, in assay [1], the binding result was “binds”.

B2: fluorescently labeled HEXIM1-TBD (HEXIM1-TBD*) (domain or fragment)
chain: B1 chain
modifications: dansyl-based fluorophore (position not given)
As for B2, the binding result in assay [2] is “binds”.
